Values of other authors in paper PMC11743636.

Key:
sIL-6R (Homo sapiens) = sIL-6R (Homo sapiens) (UniProt P08887)
sgp130 (Homo sapiens) = sgp130 (Homo sapiens) (UniProt P40189)
Chain of sgp130 (Homo sapiens) (P40189 23-619): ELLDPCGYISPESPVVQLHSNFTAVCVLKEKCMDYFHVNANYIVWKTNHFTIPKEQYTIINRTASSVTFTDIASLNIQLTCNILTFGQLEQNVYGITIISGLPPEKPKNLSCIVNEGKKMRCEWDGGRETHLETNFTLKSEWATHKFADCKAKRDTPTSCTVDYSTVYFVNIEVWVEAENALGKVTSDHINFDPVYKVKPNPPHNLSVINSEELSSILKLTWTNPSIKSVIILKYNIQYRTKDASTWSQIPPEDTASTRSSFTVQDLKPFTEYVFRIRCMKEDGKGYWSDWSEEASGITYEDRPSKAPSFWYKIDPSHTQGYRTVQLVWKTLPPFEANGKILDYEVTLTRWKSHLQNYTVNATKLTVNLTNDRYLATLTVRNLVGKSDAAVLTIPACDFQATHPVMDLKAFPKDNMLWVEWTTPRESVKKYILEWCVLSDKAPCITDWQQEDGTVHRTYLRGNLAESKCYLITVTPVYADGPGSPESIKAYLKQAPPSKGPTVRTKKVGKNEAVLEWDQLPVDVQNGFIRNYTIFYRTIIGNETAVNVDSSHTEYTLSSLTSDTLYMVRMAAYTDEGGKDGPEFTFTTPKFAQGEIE

Chain of sIL-6R (Homo sapiens) (P08887 20-355): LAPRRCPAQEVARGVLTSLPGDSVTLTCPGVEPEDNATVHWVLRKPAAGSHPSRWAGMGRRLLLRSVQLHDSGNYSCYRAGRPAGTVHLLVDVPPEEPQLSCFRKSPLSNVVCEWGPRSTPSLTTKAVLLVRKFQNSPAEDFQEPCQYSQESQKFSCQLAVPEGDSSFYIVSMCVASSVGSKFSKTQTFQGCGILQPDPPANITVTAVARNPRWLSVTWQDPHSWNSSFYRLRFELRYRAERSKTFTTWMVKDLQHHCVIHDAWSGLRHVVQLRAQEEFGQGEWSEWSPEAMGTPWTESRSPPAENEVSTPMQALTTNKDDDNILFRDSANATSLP

Row | Substance | Kd (sIL-6R (Homo sapiens)) | Kd (sgp130 (Homo sapiens))
1 | IL-6 (from UniProt P05231) | 0.5 nM | –
2 | IL-6/sIL-6R complex (from UniProt P05231) | – | 0.05 nM
